Data from the supplement of paper PMC10567573.

B1: GFOD1 (parent)
chain: SDDFCTFQMVLEGGVCCTVTLNFN
B2: MYBL2 (parent)
chain: IAKHLKGRLGKQCRERWHNHLNPE

Variants of: B1
Test: protein stability index of a GFP-peptide fusion (GPS, HEK-293T) (PSI 1-6); higher = more stable
Details: c terminus: a fixed tail appended
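Further: lentivirally expressed fusions sorted by FACS into six bins by GFP to DsRed ratio, PSI derived from sequencing read proportions per bin multiplied by bin number.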

Variant	protein stability index
SDDNCTFQMVLEGGVCCTVTLNFN [F4N]	3.13
SDDECTFQMVLEGGVCCTVTLNFN [F4E]	1.81
SDDKCTFQMVLEGGVCCTVTLNFN [F4K]	1.77
SDDLCTFQMVLEGGVCCTVTLNFN [F4L]	3.55
SDDTCTFQMVLEGGVCCTVTLNFN [F4T]	3.91
SDDRCTFQMVLEGGVCCTVTLNFN [F4R]	3.19
SDDDCTFQMVLEGGVCCTVTLNFN [F4D]	2.46
SDDHCTFQMVLEGGVCCTVTLNFN [F4H]	1.87
SDDMCTFQMVLEGGVCCTVTLNFN [F4M]	3.37
SDDICTFQMVLEGGVCCTVTLNFN [F4I]	3.55
SDDCCTFQMVLEGGVCCTVTLNFN [F4C]	3.57
SDDSCTFQMVLEGGVCCTVTLNFN [F4S]	2.38
SDDVCTFQMVLEGGVCCTVTLNFN [F4V]	2.91
SDDYCTFQMVLEGGVCCTVTLNFN [F4Y]	2.63
SDDQCTFQMVLEGGVCCTVTLNFN [F4Q]	2.56
SDDFCTDQMVLEGGVCCTVTLNFN [F7D]	1.59
QDDFCTFQMVLEGGVCCTVTLNFN [S1Q]	1.76
NDDFCTFQMVLEGGVCCTVTLNFN [S1N]	2.42
KDDFCTFQMVLEGGVCCTVTLNFN [S1K]	3.01
HDDFCTFQMVLEGGVCCTVTLNFN [S1H]	2.21
DDDFCTFQMVLEGGVCCTVTLNFN [S1D]	2.52
MDDFCTFQMVLEGGVCCTVTLNFN [S1M]	2.15
YDDFCTFQMVLEGGVCCTVTLNFN [S1Y]	3.3
RDDFCTFQMVLEGGVCCTVTLNFN [S1R]	2.98
PDDFCTFQMVLEGGVCCTVTLNFN [S1P]	2.84

Variant	protein stability index
EDDFCTFQMVLEGGVCCTVTLNFN [S1E]	1.75
ADDFCTFQMVLEGGVCCTVTLNFN [S1A]	3.07
TDDFCTFQMVLEGGVCCTVTLNFN [S1T]	3.26
SDDFCIFQMVLEGGVCCTVTLNFN [T6I]	2.48
SDDFCDFQMVLEGGVCCTVTLNFN [T6D]	3.22
SDDFCWFQMVLEGGVCCTVTLNFN [T6W]	2.35
SDDFCEFQMVLEGGVCCTVTLNFN [T6E]	2.56
SDDFCFFQMVLEGGVCCTVTLNFN [T6F]	2.48
SDDFCAFQMVLEGGVCCTVTLNFN [T6A]	2.79
SDDFCKFQMVLEGGVCCTVTLNFN [T6K]	2.04
SDDFCNFQMVLEGGVCCTVTLNFN [T6N]	2.54
SDDFCYFQMVLEGGVCCTVTLNFN [T6Y]	1.92
SDDFCHFQMVLEGGVCCTVTLNFN [T6H]	2.12
SDDFCMFQMVLEGGVCCTVTLNFN [T6M]	3.02
SDDFCGFQMVLEGGVCCTVTLNFN [T6G]	2.51
SDDFCPFQMVLEGGVCCTVTLNFN [T6P]	1.65
SDDFLTFQMVLEGGVCCTVTLNFN [C5L]	3.9
SDDFMTFQMVLEGGVCCTVTLNFN [C5M]	3.18
SDDFVTFQMVLEGGVCCTVTLNFN [C5V]	3.65
SDDFITFQMVLEGGVCCTVTLNFN [C5I]	3.26
SDDFHTFQMVLEGGVCCTVTLNFN [C5H]	2.97
SDDFATFQMVLEGGVCCTVTLNFN [C5A]	1.58
SDDFQTFQMVLEGGVCCTVTLNFN [C5Q]	3.77
SDDFRTFQMVLEGGVCCTVTLNFN [C5R]	3.13
SDDFDTFQMVLEGGVCCTVTLNFN [C5D]	2.59

Variant	protein stability index
SDDFFTFQMVLEGGVCCTVTLNFN [C5F]	2.08
SDDFKTFQMVLEGGVCCTVTLNFN [C5K]	2.39
SDPFCTFQMVLEGGVCCTVTLNFN [D3P]	3.01
SDAFCTFQMVLEGGVCCTVTLNFN [D3A]	2.55
SDVFCTFQMVLEGGVCCTVTLNFN [D3V]	3.3
SDNFCTFQMVLEGGVCCTVTLNFN [D3N]	2.68
SDYFCTFQMVLEGGVCCTVTLNFN [D3Y]	4
SDGFCTFQMVLEGGVCCTVTLNFN [D3G]	3.28
SDLFCTFQMVLEGGVCCTVTLNFN [D3L]	2.58
SDKFCTFQMVLEGGVCCTVTLNFN [D3K]	3.76
SDIFCTFQMVLEGGVCCTVTLNFN [D3I]	1.7
SDQFCTFQMVLEGGVCCTVTLNFN [D3Q]	2.69
SSDFCTFQMVLEGGVCCTVTLNFN [D2S]	3.14
SNDFCTFQMVLEGGVCCTVTLNFN [D2N]	3.57
SLDFCTFQMVLEGGVCCTVTLNFN [D2L]	3.05
STDFCTFQMVLEGGVCCTVTLNFN [D2T]	3.29
SCDFCTFQMVLEGGVCCTVTLNFN [D2C]	3.12
SYDFCTFQMVLEGGVCCTVTLNFN [D2Y]	3.72
SMDFCTFQMVLEGGVCCTVTLNFN [D2M]	1.27
SGDFCTFQMVLEGGVCCTVTLNFN [D2G]	2.84
SEDFCTFQMVLEGGVCCTVTLNFN [D2E]	3.11
SADFCTFQMVLEGGVCCTVTLNFN [D2A]	3.55
SQDFCTFQMVLEGGVCCTVTLNFN [D2Q]	3.58
SHDFCTFQMVLEGGVCCTVTLNFN [D2H]	2.72

Variants of: B2
Test: as above
Details: c terminus: a fixed tail appended

Variant	protein stability index
IAKHLKGRLGKQCRERWHNHKNPE [L21K]	2.79
IAKHLKGRLGKQCRERWHNHGNPE [L21G]	1.98
IAKHLKGRLGKQCRERWHNHRNPE [L21R]	2.34
IAKHLKGRLGKQCRERWHNHSNPE [L21S]	1.97
IAKHLKGRLGKQCRERWHNHHNPE [L21H]	1.75
IAKHLKGRLGKQCRERWHNHPNPE [L21P]	2.97
IAKHLKGRLGKQCRERWHNHMNPE [L21M]	1.47
IAKHLKGRLGKQCRERWHNHQNPE [L21Q]	2.47
IAKHLKGRLGKQCRERWHNHDNPE [L21D]	2.17
IAKHLKGRLGKQCRERWHNHCNPE [L21C]	1.69
IAKHLKGRLGKQCRERWHNHANPE [L21A]	2.16
IAKHLKGRLGKQCRERWHNHVNPE [L21V]	2.23
IAKHLKGRLGKQCRERWHNHENPE [L21E]	2.88
IAKHLKGRLGKQCRERWHNHFNPE [L21F]	1.91
IAKHLKGRLGKQCRERWHNHYNPE [L21Y]	1.85
IAKHLKGRLGKQCRERWHNHTNPE [L21T]	2.3
IAKHLKGRLGKQCRERWHNHWNPE [L21W]	1.79
IAKHLKGRLGKQCRERWHNHNNPE [L21N]	2.22
IAKHLKGRLGKQCRERWHNHINPE [L21I]	2.29
IAKHLKGRLGKQCRERWHNHLNLE [P23L]	1.66
IAKHLKGRLGKQCRERWHNHLNAE [P23A]	2.62
IAKHLKGRLGKQCRERWHNHLNME [P23M]	2.21
IAKHLKGRLGKQCRERWHNHLNHE [P23H]	2.1

Variant	protein stability index
IAKHLKGRLGKQCRERWHNHLNEE [P23E]	1.85
IAKHLKGRLGKQCRERWHNHLNKE [P23K]	2.26
IAKHLKGRLGKQCRERWHNHLNNE [P23N]	1.93
IAKHLKGRLGKQCRERWHNHLNWE [P23W]	1.98
IAKHLKGRLGKQCRERWHNHLNFE [P23F]	3.01
IAKHLKGRLGKQCRERWHNHLNCE [P23C]	2.4
IAKHLKGRLGKQCRERWHNHLNVE [P23V]	2.46
IAKHLKGRLGKQCRERWHNHLNQE [P23Q]	1.79
IAKHLKGRLGKQCRERWHNHLNIE [P23I]	2.14
IAKHLKGRLGKQCRERWHNHLNSE [P23S]	1.49
IAKHLKGRLGKQCRERWHNHLNGE [P23G]	2.03
IAKHLKGRLGKQCRERWHNHLNTE [P23T]	2.19
IAKHLKGRLGKQCRERWHNHLNDE [P23D]	1.89
IAKHLKGRLGKQCRERWHNHLNYE [P23Y]	1.33
IAKHLKGRLGKQCRERWHNHLNRE [P23R]	2.11
IAKHLKGRLGKQCRERWYNHLNPE [H18Y]	1.67
IAKHLKGRLGKQCRERWHNTLNPE [H20T]	2.09
IAKHLKGRLGKQCRERWHNELNPE [H20E]	2.35
IAKHLKGRLGKQCRERWHNFLNPE [H20F]	1.92
IAKHLKGRLGKQCRERWHNSLNPE [H20S]	1.54
IAKHLKGRLGKQCRERWHNGLNPE [H20G]	1.87
IAKHLKGRLGKQCRERWHNLLNPE [H20L]	2.42
IAKHLKGRLGKQCRERWHNNLNPE [H20N]	2.1

Variant	protein stability index
IAKHLKGRLGKQCRERWHNALNPE [H20A]	1.69
IAKHLKGRLGKQCRERWHNRLNPE [H20R]	1.21
IAKHLKGRLGKQCRERWHNDLNPE [H20D]	1.96
IAKHLKGRLGKQCRERWHNVLNPE [H20V]	2.58
IAKHLKGRLGKQCRERWHNCLNPE [H20C]	2.44
IAKHLKGRLGKQCRERWHNKLNPE [H20K]	2.18
IAKHLKGRLGKQCRERWHNWLNPE [H20W]	2.57
IAKHLKGRLGKQCRERWHNQLNPE [H20Q]	1.84
IAKHLKGRLGKQCRERWHNILNPE [H20I]	1.77
IAKHLKGRLGKQCRERWHNPLNPE [H20P]	2.41
IAKHLKGRLGKQCRERWHNYLNPE [H20Y]	1.62
IAKHLKGRLGKQCRERWHNMLNPE [H20M]	1.06
IAKHLKGRLGKQCRERWHWHLNPE [N19W]	2.24
IAKHLKGRLGKQCRERWHKHLNPE [N19K]	1.72
IAKHLKGRLGKQCRERWHRHLNPE [N19R]	2.31
IAKHLKGRLGKQCRERWHQHLNPE [N19Q]	2.02
IAKHLKGRLGKQCRERWHYHLNPE [N19Y]	3.59
IAKHLKGRLGKQCRERWHTHLNPE [N19T]	1.9
IAKHLKGRLGKQCRERWHVHLNPE [N19V]	2.05
IAKHLKGRLGKQCRERWHAHLNPE [N19A]	1.41
IAKHLKGRLGKQCRERWHCHLNPE [N19C]	1.54
IAKHLKGRLGKQCRERWHHHLNPE [N19H]	1.73
IAKHLKGRLGKQCRERWHSHLNPE [N19S]	1.91

Variant	protein stability index
IAKHLKGRLGKQCRERWHMHLNPE [N19M]	1.63
IAKHLKGRLGKQCRERWHFHLNPE [N19F]	2.58
IAKHLKGRLGKQCRERWHDHLNPE [N19D]	2.05
IAKHLKGRLGKQCRERWHEHLNPE [N19E]	2.24
IAKHLKGRLGKQCRERWHLHLNPE [N19L]	2.63
IAKHLKGRLGKQCRERWHGHLNPE [N19G]	2.8
IAKHLKGRLGKQCRERWHIHLNPE [N19I]	3.11
IAKHLKGRLGKQCRERWHPHLNPE [N19P]	1.02
IAKHLKGRLGKQCRERWHNHLNPS [E24S]	1.81
IAKHLKGRLGKQCRERWHNHLNPK [E24K]	2.68
IAKHLKGRLGKQCRERWHNHLNPQ [E24Q]	1.4
IAKHLKGRLGKQCRERWHNHLNPG [E24G]	3
IAKHLKGRLGKQCRERWHNHLNPP [E24P]	2.12
IAKHLKGRLGKQCRERWHNHLNPH [E24H]	2
IAKHLKGRLGKQCRERWHNHLNPW [E24W]	1.79
IAKHLKGRLGKQCRERWHNHLNPC [E24C]	1.41
IAKHLKGRLGKQCRERWHNHLNPL [E24L]	2.54
IAKHLKGRLGKQCRERWHNHLNPV [E24V]	3.05
IAKHLKGRLGKQCRERWHNHLNPF [E24F]	2.82
IAKHLKGRLGKQCRERWHNHLNPA [E24A]	2.08
IAKHLKGRLGKQCRERWHNHLNPT [E24T]	2.21
IAKHLKGRLGKQCRERWHNHLNPI [E24I]	2.27
IAKHLKGRLGKQCRERWHNHLNPR [E24R]	2.75

Variant	protein stability index
IAKHLKGRLGKQCRERWHNHLNPD [E24D]	2.34
IAKHLKGRLGKQCRERWHNHLNPN [E24N]	2.35
IAKHLKGRLGKQCRERWHNHLNPM [E24M]	3.97
IAKHLKGRLGKQCRERWHNHLYPE [N22Y]	2.45
IAKHLKGRLGKQCRERWHNHLVPE [N22V]	2.44
IAKHLKGRLGKQCRERWHNHLQPE [N22Q]	2.05
IAKHLKGRLGKQCRERWHNHLRPE [N22R]	1.64
IAKHLKGRLGKQCRERWHNHLFPE [N22F]	2.7
IAKHLKGRLGKQCRERWHNHLHPE [N22H]	1.91
IAKHLKGRLGKQCRERWHNHLTPE [N22T]	2.53
IAKHLKGRLGKQCRERWHNHLCPE [N22C]	1.92
IAKHLKGRLGKQCRERWHNHLAPE [N22A]	1.73
IAKHLKGRLGKQCRERWHNHLDPE [N22D]	2.06
IAKHLKGRLGKQCRERWHNHLEPE [N22E]	2.42
IAKHLKGRLGKQCRERWHNHLKPE [N22K]	1.51
IAKHLKGRLGKQCRERWHNHLGPE [N22G]	1.43
IAKHLKGRLGKQCRERWHNHLIPE [N22I]	2.09
IAKHLKGRLGKQCRERWHNHLMPE [N22M]	2.58
IAKHLKGRLGKQCRERWHNHLLPE [N22L]	2.24
IAKHLKGRLGKQCRERWHNHLPPE [N22P]	1.35
IAKHLKGRLGKQCRERWHNHLWPE [N22W]	2.6
IAKHLKGRLGKQCRERWHNHLSPE [N22S]	2.29
